The chains are these.
B1: scFv-A11 (scFv)
scFv: QAALTQPSSVSANPGETVKITCSGGGSYGGSYYYGWYQQKSPGSAPVTVIYSNDNRPSDIPSRFSGSTSGSTSTLTITGVQVDDEAVYYCGTYDSSYVGIFGAGTALTVLGQSSRSSGGGSSGGGGSAVTLDESGGGLQTPGGGLSLVCKASGFTFSSYSMQWVRQTPGKGLEFVAGIGYSDSYTYFGPAVKGRATISRDNGQNTVRLQLNNLRAEDTATYYCARSADTIYGCTHPWCSADNIDAWGHGTEVIVSSTSGQAGQ
notes: Chicken scFv (VL-linker-VH), expressed soluble in E. coli; It recognises the Gal-α-(1→3)-Gal glycan
B2: scFv-A4 (scFv)
scFv: QAALTQPSSVSTNPGGTVKITCSGGNGNYGWYQQKSPGSAPVTVIYSNNKRPSDIPSRFSGSKSGSTATLTITGVQVDDEAVYFCGAYDNTYVGVFGAGTTLTVLGQSSRSSSGGGSSGGGGSAVTLDESGGGLQTPGGGLSLVCKASGFTFSSYSMQWVRQTPGKGLEFVAGIGYSDSYTYFGPAVKGRATISRDNGQNTVRLQLNNLRAEDTATYYCARSADTIYGCTHPWCSADNIDAWGHGTEVIVSSTSGQAGQ
notes: Chicken scFv (VL-linker-VH) from a pComb3 phage library, expressed soluble in E. coli; It recognises the Gal-α-(1→3)-Gal glycan, not a protein surface
B3: scFv-G12 (scFv)
scFv: QAALTQPSSVSANPGETVKITCSGGSYHYGWYQQKSPGSAPVTVIYSNNQRPSGIPSRFSGSTSDSTGTLTITGVQADDEAVYFCGSYDSSNTYAGIFGAGTTLTVLGQSSRSSSGGGSSGGGGSAVTLDESGGGFQTPGGALSLVCKASGFTFSSYSMQWVRQAPGKGLEFVAGIGNSDRYTYFGPAVKGRATISRDNGQSTLRLQLNNLRAEDTATYFCARSGDSGNGCTHPWCSADNINAWGHGTEVIVSSTSGQAGQ
notes: as for B1

These results are taken from patent US20160003839A1 (NATIONAL UNIVERSITY OF IRELAND GALWAY, published 2016).

This experiment has as its target T1, Gal-α-(1→3)-Gal target of the SPR experiment (ligand on the chip not stated).
T1 construct: also called target glycan
Put plainly: SPR (BIAcore), Kd from kon and koff; ligand on the chip not stated. The protocol:
Dissociation constants (Kd) for the scFvs were calculated from the measured association (kon) and dissociation (koff) rate constants by using surface plasmon resonance (SPR) BIAcore instrumentation and software (GE).
For orientation: SPR reads the build-up and loss of mass on a sensor chip optically.
Broadly, the Kd is the equilibrium constant for the complex coming apart. Read a high Kd as weaker binding. B1 returned a Kd of 8.04 nM.
The result for B2 reads 57.3 nM; that for B3, 18 nM.
